Results on 20 molecules are retold here after patent US20240189443A1, “PD-L1 AND TLR7 DOUBLE-TARGETING NANOBODY COUPLING DRUG AND USE THEREOF IN ANTI-TUMOR” (SHANGHAI INSTITUTE OF MATERIA MEDICA, CHINESE ACADEMY OF …, priority 2021, published 2024).

Residue numbers refer to the chain shown, from its start. “And” between values parts separate entries of the source, which are not always exact repeats. Identical values can stand only once.

Assay [1] has as its system induced high-expression PD-L1 CT26 tumor cell. Kind of assay: Combined anti-tumor effect of Nb16 and SZU-101, IFN-γ-induced CT26 subcutaneous tumor model. The settings on record: Nb16 10 mg/kg intraperitoneal, SZU-101 3 mg/kg peritumoral. The format is in vivo, BALB/c mouse. The procedure: The mouse CT26 tumor cells were recovered and passaged, it was ensured that tumor cells at least have been subjected to 3 generations during tumor-bearing, and mouse IFN-γ with a final concentration of 100 ng/mL was used to induce tumor cells for 24 h before tumor-bearing, so that the cell surface thereof highly expresses PD-L1; the induced high-expression PD-L1 CT26 tumor cell was inoculated subcutaneously into a female BALB/c mouse, wherein the inoculation amount was 1×10^6 cells/one; and randomly grouping mice into four groups (9 per group), i.e., a same-type control group (mFc), a nano-antibody Nb16 group (Nb16), a TLR7 agonist SZU-101 group (SZU-101) and a combined treatment group (NB16/SZU-101), wherein the administration amount of the mFc and the Nb16 was 10 mg/kg, and intraperitoneal administration was performed; and the administration amount of the SZU-101 was 3 mg/kg, and the tumor was administered circumferentially. The administration cycle were Nb16 administered on D1, D5, D9, D12, and D14 and SZU-101 administered on D9-D14 (3A). The body weight of the mouse and the tumor major diameter (L) and the short diameter (W) in the administration cycle were observed and recorded until the anatomical endpoint, and the tumor volume V=(L×W×W)/2 was calculated, a tumor growth curve was drawed, and the tumor inhibition rate was calculated; and the experiment was terminated on the fifteenth day. After performing euthanasia, the animal was dissected, and the subcutaneous tumor was taken out.

Assay [2] addresses T1, human PD-L1 on cell strain HEK293T/hPD-L1 (human, UniProt Q9NZQ7 19-290).
T1 construct: whole, on cells
Kind of assay: flow cytometry on HEK293T/hPD-L1, 10 µg/mL, anti-human IgG Fc (FITC). The procedure: (§1) The cell strain HEK293T/hPD-L1 was digested, and centrifugationwas performed to remove the supernatant; the cells were washed one time with PBS and the cell density was adjusted to 2.5×10⁶ cells/mL; each cell sample was added to a 100 μL cell suspension, that is, a 2.5×10⁵ cell/sample was comprised; different anti-human PD-L1 candidate nanobodies (the concentration is 10 μg/mL) were respectively added to the samples; incubating for 20 min at 4° C.; centrifuging, removing supernatant, and the cells were washing once with PBS; using diluted antibody anti-human IgG Fc (FITC) as secondary antibody, and the cells were re-suspended; incubating at 4° C. for 20 min; centrifuging, removing supernatant, the cells were washing twice with PBS, and transferred to a flow tube; and was performed on-machine detection by using a flow cytometer to obtain the binding activity of the candidate nanobody and human PD-L1, as shown in FIG. 13.

The target in a further assay is T2, HEK293T/hPD-L1 (Homo sapiens, UniProt Q9NZQ7).
T2 construct: expressed in transfected cells; host or cells: HEK293T
T2 sequence (Q9NZQ7 19-290): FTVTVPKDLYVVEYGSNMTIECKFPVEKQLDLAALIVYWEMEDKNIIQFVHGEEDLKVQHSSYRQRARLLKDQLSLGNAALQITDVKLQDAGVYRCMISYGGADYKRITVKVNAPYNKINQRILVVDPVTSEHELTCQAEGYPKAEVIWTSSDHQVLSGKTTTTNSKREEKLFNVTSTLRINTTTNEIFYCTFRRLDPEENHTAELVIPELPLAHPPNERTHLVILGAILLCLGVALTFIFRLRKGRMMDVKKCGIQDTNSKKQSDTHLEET
The experiment in a line: Human PD-L1 binding activity assay of candidate anti-human PD-L1 nanobodies (flow cytometry). The settings on record: nanobody 10 μg/mL. On the procedure: as §1, with “2.5×10^6” for “2.5×10⁶”, “2.5×10^5” for “2.5×10⁵”
A general note: A flow cytometer gives signals particle by particle.

For a further assay, the target named is PD-1/PD-L1 (Mus musculus, UniProt Q9EP73). Kind of assay: In vitro activity of candidate nanobodies NB9, NB10, NB11, NB17 (blocking or non-blocking type). It counts as binding.
Sequence of PD-1/PD-L1 (Q9EP73 19-239): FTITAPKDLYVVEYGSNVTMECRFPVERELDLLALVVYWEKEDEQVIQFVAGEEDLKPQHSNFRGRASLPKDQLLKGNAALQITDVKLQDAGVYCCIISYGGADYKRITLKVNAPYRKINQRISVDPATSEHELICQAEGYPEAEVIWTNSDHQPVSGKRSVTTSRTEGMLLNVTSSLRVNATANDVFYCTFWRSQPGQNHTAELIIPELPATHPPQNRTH
For assay [3], the target named is PD-L1 (human PD-L1 protein of the ELISA of Example 16) (human, UniProt Q9NZQ7 19-238, limits assumed). Kind of assay: ELISA; affinity relative to original antibody h_Nb2 VHH (SEQ ID NO.25). (In general: ELISA stands for enzyme-linked immunosorbent assay.)
Sequence of PD-L1 (human PD-L1 protein of the ELISA of Example 16) (Q9NZQ7 19-238 limits assumed): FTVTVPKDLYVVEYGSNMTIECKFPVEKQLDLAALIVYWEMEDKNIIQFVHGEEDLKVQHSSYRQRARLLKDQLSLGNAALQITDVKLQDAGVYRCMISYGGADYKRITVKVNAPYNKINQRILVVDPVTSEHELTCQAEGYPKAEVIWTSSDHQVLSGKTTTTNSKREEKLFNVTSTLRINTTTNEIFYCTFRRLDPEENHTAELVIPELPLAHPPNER

T1 sequence (Q9NZQ7 19-290): as the sequence (Q9NZQ7 19-290) above

On to `COCCOc1nc(N)c2nc(O)n(Cc3ccc(CNC(=O)CCC(=O)O)cc3)c2n1` [SZU-101], for which the “Anti-tumor effect” value in assay [1] is “significantly inhibit tumor growth”. Moreover, the Tumor inhibitory rate in assay [1] (day 15) is 49%. For the same molecule, in assay [1] (individual mice, day 15), the “Endpoint tumor Weight” value is 0.298 g and 0.560 g and 0.330 g and 0.278 g and 0.354 g and 0.516 g and 0.286 g and 0.328 g and 0.426 g.

B1: anti-human PD-L1 nanobody h_Nb13 (Fc fusion)
chain: DVQLQESGGGLVQPGGSLRLSCAASGSIFSINAMGWYRQAPGKSRELVAAITSGGSTNYADSVKGRFTISRDTAKNTVYLLMNSLEPEDTAVYYCNVERRRPPHYLSEYDFDWGQGTQVTVSS
notes: not shown: Fc of human IgG1 from vector pFUSE-hIgG1-Fc
As to B1, the binding result in assay [2] was “binds”.

B2: h_Nb13: anti-human PD-L1 nanobody, VHH SEQ ID NO: 48 (protein)
VHH: B1 chain
modifications: h_Nb13 Amino acid sequence of VHH
As for B2, in the assay with HEK293T/hPD-L1, the “Binding activity with human PD-L1” value is listed as “good binding activity”.

B3: h_Nb26: anti-human PD-L1 nanobody, VHH SEQ ID NO: 56 (protein)
VHH: B1 chain with S25P, S30R, S44Q, K64Q, T73N, L81Q, E86K, L106Y, E108D
modifications: h_Nb26 Amino acid sequence of VHH
As to B3, the “Binding activity with human PD-L1” value in the assay with HEK293T/hPD-L1 was “good binding activity”.

B4: anti-human PD-L1 nanobody h_Nb26 (Fc fusion)
chain: B1 chain with S25P, S30R, S44Q, K64Q, T73N, L81Q, E86K, L106Y, E108D
notes: as for B1
B4: the binding result in assay [2] is “binds”.

B5: anti-human PD-L1 nanobody h_Nb6 (Fc fusion)
chain: DVQLQESGGGLAQPGGSLRLSCAASGFTFSSYAMSWARQAPGKGLEWVAGIYRGGSDTYYADSVKGRFTISRDNTKNTLYLQMNSLKPEDTALYYCIQGWGLGYANYDYWGQGTQVTVSS
notes: as for B1
On to B5, for which, in assay [2], the binding result is listed as “binds”.

B6: h_Nb6: anti-human PD-L1 nanobody, VHH SEQ ID NO: 37 (protein)
VHH: B5 chain
modifications: h_Nb6 Amino acid sequence of VHH
Consider B6, for which, in the assay with HEK293T/hPD-L1, the “Binding activity with human PD-L1” value is “good binding activity”.

B7: anti-human PD-L1 nanobody h_Nb5 (Fc fusion)
chain: DVQLQESGGGAVQSGESLRLSCAASGRDLMFYDVAWFRQAPGKEREGVSYIRSSGTLTKYADSVKGRFTISRDNDKNTVSLQMNSLNPEDTAKYYCAARLQSATSHSDLREDEFNSWGQGTQVTVSS
notes: as for B1
On to B7, for which, in assay [2], the binding result is given as “binds”.

B8: h_Nb5: anti-human PD-L1 nanobody, VHH SEQ ID NO: 33 (protein)
VHH: B7 chain
modifications: h_Nb5 Amino acid sequence of VHH
Regarding B8, the “Binding activity with human PD-L1” value with HEK293T/hPD-L1 is “good binding activity”.

B9: anti-human PD-L1 nanobody h_Nb12 (Fc fusion)
chain: DVQLQESGGGLVQAGGSLRLSCAASGRTFSSRAMGWFRQAPGKEREFVAAISGSGRNTYYADSVKGRFTISRDNAKNSVNLQMNSLKPEDTAVYYCNAAGGGITIATMTQRTQYDYWGQGTQVTVSS
notes: as for B1
B9: the binding result in assay [2] is “binds”.

B10: h_Nb12: anti-human PD-L1 nanobody, VHH SEQ ID NO: 44 (protein)
VHH: B9 chain
modifications: h_Nb12 Amino acid sequence of VHH
On to B10, for which the “Binding activity with human PD-L1” value in the assay with HEK293T/hPD-L1 is reported as “good binding activity”.

B11: Nb9: anti-PD-L1 nanobody, VHH SEQ ID NO: 5 (protein)
VHH: QVQLQESGGGLVHPGGSLRLSCAASGFTFSSYTMRWVRQAPGKGLEWVSGINNVGGSTLYADSVKGRFTISRDNAKNTLYLQMNSLQPDDTAMYYCATGIIGSGLETATYRGQGTQVTVSS
modifications: Nb9 Amino acid sequence of VHH
As for B11, the “Blocking type or non-blocking type nanobody” value with PD-1/PD-L1 is recorded as “blocking type”.

B12: h_Nb2_P100Q (VHH)
VHH: DVQLQESGGGLVQPGGSLRLSCAASGFTFGDRWMYWLRQAPGKGLEWVSSINPAGRSTYYADSVKGRFTISRDNAKNTLYLQMNSLKSEDTAVYYCTKDQGGYQKGQGTQVTVSS
notes: also called 116
With B12, the Increased relative affinity in assay [3] was 3.41 relative.

B13: anti-human PD-L1 nanobody h_Nb2 (Fc fusion)
chain: B12 VHH with Q100P
notes: as for B1
B13: the binding result in assay [2] is listed as “binds”.

B14: h_Nb2_P100R (VHH)
VHH: B12 VHH with Q100R
notes: also called 115
B14 returned an Increased relative affinity in assay [3] of 7.21 relative.

B15: anti-human PD-L1 nanobody h_Nb4 (Fc fusion)
chain: DVQLQESGGGLVQAGGSLRLSCAAPSRMFSGYTMGWYRQAPGKQRELVAQIANGGFTDYIDSVKGRFSISRDTVLNMMYLQMNSLKPEDTAVYYCNLVLVNGIPTRNWGQGTQVTVSS
notes: as for B1
Turning to B15, the binding result in assay [2] is “binds”.

B16: h_Nb4: anti-human PD-L1 nanobody, VHH SEQ ID NO: 29 (protein)
VHH: B15 chain
modifications: h_Nb4 Amino acid sequence of VHH
Turning to B16, the “Binding activity with human PD-L1” value with HEK293T/hPD-L1 is listed as “good binding activity”.

B17: anti-human PD-L1 nanobody h_Nb9 (Fc fusion)
chain: DVQLQESGGGLVQPGGSLRLSCASSGSIFGLGVKGWYRQPPGNQREMVAQIISGGRISYADSVKGRFTISRDNAKNTVYLQMNSLKPEDTAVYYCNAWGPGQRNYWGRGTQVTVSS
notes: as for B1
B17: in assay [2], the binding result was “binds”.

B18: h_Nb9: anti-human PD-L1 nanobody, VHH SEQ ID NO: 40 (protein)
VHH: B17 chain
modifications: h_Nb9 Amino acid sequence of VHH
For B18, the “Binding activity with human PD-L1” value with HEK293T/hPD-L1 is “good binding activity”.

B19: anti-human PD-L1 nanobody h_Nb1 (Fc fusion)
chain: DVQLQESGGGLVQPGGSLRLSCAASGFTFSSYAMSWVRQAPGKGLEWVSDINSGGDNTDYADSVKGRFTISRDNAKNTLYLQMNSLKPEDTAVYYCARGPKLCFSSWGQGTQVTVSS
notes: Cloned into pFUSE-mIgG2b-Fc and pFUSE-hIgG1-Fc; not shown: Fc of human IgG1 from vector pFUSE-hIgG1-Fc
Turning to B19, the binding result in assay [2] is “binds”.
